In paper PMC6013234:

Target: T1, DENR (in DENR-MCTS1 complex, coexpressed);MCTS1 (in DENR-MCTS1 complex, coexpressed) (human;human) (UniProt O43583+Q9ULC4)
T1 sequence 1: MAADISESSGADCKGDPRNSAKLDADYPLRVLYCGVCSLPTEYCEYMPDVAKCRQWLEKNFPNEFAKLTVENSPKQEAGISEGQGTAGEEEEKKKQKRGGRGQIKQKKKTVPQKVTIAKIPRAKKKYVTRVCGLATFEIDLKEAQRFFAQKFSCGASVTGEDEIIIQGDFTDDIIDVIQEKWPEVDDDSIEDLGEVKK
T1 sequence 2: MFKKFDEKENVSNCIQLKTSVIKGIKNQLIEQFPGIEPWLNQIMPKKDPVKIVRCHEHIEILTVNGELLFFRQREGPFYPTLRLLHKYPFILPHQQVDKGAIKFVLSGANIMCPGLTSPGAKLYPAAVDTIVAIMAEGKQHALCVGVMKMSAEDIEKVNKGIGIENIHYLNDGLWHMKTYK
Assay: EMSA
Conditions: Scatchard, 5 replicates; general value, per-tRNA Kd only in S3E' Fig; 50 mM Tris pH 7.5, 150 mM NaCl, 15 mM imidazole (protein eluted in 300 mM imidazole, 2 mM DTT added), protein 0.25-16 uM, RNA 1 uM (3 uM yeast tRNA mix), 30 min

tRNA, species not specified in text
Kd: 1500 nM
